# Positions count from the first letter of the chain named. Numbers in names are those of the source. Read-outs that look alike come from different tables or passages of the source.
# B1: UCA (antibody, V domains shown)
# VH: QVQLQESGPGLVKPSETLSLTCTVSGGSVSSGSYYWSWIRQPPGKGLEWIGYIYYSGSTNYNPSLKSRVTISVDTSKNQFSLKLSSVTAADTAVYYCARGTEDLGYCSGGSCPNHWGQGTLVTV
# VL: not shown
# B2: FluA-20 UCA Fab (unmutated common ancestor of FluA-20) (Fab, V domains shown)
# VH: B1 VH
# VL: not shown
# B3: FluA-20 (hybridoma-produced IgG) (antibody, V domains shown)
# VH: QVQLQESGPGLVKPSETLSLTCSVSGVSVTSDIYYWTWIRQPPGKGLEWIGYIFYNGDTNYNPSLKSRVTMSIDTSKNEFSLRLTSVTAADTAVYFCARGTEDLGYCSSGSCPNHWGQGTLVTVSS
# VL: DIQMTQSPSSLSASIGDRVTITCRPSQNIRSFLNWFQHKPGKAPKLLIYAASNLQSGVPSRFSGSGSGTEFTLTIRSLQPEDFATYYCQQSYNTPPTFGQGTKVEIK
# B4: rFluA-20 heavy chain mutant T96A (antibody, V domains shown)
# VH: B3 VH with T101A
# VL: B3 VL
# B5: rFluA-20 heavy chain mutant E97A (antibody, V domains shown)
# VH: B3 VH with E102A
# VL: B3 VL
# B6: rFluA-20 heavy chain mutant Y100aA (antibody, V domains shown)
# VH: B3 VH with Y106A
# VL: B3 VL
# B7: rFluA-20 (recombinant FluA-20 IgG) (antibody, V domains shown)
# VH: B3 VH
# VL: B3 VL
# B8: rFluA-20 heavy chain mutant Y34A (antibody, V domains shown)
# VH: B3 VH with Y34A
# VL: B3 VL
# B9: rFluA-20 light chain mutant N53A (antibody, V domains shown)
# VH: B3 VH
# VL: B3 VL with N53A
# B10: H5.31 (antibody, V domains shown)
# VH: EVQLVQSGGGLVQPGGSLRLSCEASRFTSSSYWITWVRQAPGKGLEWVANIKQDGSEKYFVDSVKGRFTISRDNASNSLYLQMSSLRAEDTAVYYCARGFLERLLLGRQGAYYYGMDVWGQGTTVTVSS
# VL: DIQMTQSPSSLSASVGDRVTMTCRASQSISSSLNWYQQKPGKAPKLLIYAASNLQSGVPSRFSGSGSGTDFTLTISSLQPEDFATYYCQQSYTMPPELTFGGGTKVQIK
# B11: H5.28 (antibody, V domains shown)
# VH: EVQLVESGGGLVQPGGSLRLSCAASGFTFSTYWMTWVRQAPGKGLEWVANINQDGGEKYFVDSVKGRFTISRDNAKNSLFLQMNTLRAEDTAVYYCARGFLERLLLGRQGAYYYGMDVWGQGTTVTVSS
# VL: B10 VL with T20S, S28I, T93S, M94T, Q107E
# What was measured:
# [1] = target: T1, HA of A/California/04/2009 (H1N1) (influenza A virus (H1N1), UniProt P26140 18-529); assay: ELISA, recombinant HA
# [2] = target: HA of A/duck/Czechoslovakia/1956 (H4); assay: ELISA, recombinant HA
# [3] = target: T1, HA of A/California/04/2009 (H1N1); assay: ELISA, recombinant HA; remark: listed apart in the source
# [4] = target: HA of A/duck/Czechoslovakia/1956 (H4); assay: ELISA, recombinant HA; remark: listed apart in the source
# [5] = target: T1, HA of A/California/04/2009 (H1N1); assay: BLI, Fab on immobilized biotinylated HA
# [6] = target: T1, HA of A/California/04/2009 (H1N1); assay: BLI, Fab on immobilized biotinylated HA; remark: listed apart in the source
# [7] = target: HA of A/Singapore/1/1957 (H2) (influenza A virus (H2), UniProt Q67333 16-525)
# [8] = target: HA of A/Hong Kong/1/1968 (H3N2) (influenza A virus (H3N2), UniProt Q91MA7 17-530)
# [9] = target: T1, HA of A/California/04/2009 (H1N1); assay: ELISA (highest dilution tested 1/50,000)
binder,measurement,setting,value
B1,EC50,[1],0.051 µg/mL
same,EC50,[2],0.013 µg/mL
same,EC50,[3],0.14 µg/mL
same,EC50,[4],0.025 µg/mL
B2,Kd,[5],1430 nM
same,Kd,[6],1430 nM
B3,EC50,[2],0.007 µg/mL
same,EC50,[4],0.013 µg/mL
B4,EC50,[7],0.07 µg/mL
same,EC50,[8],0.1 µg/mL
B5,EC50,[7],0.13 µg/mL
same,EC50,[8],0.07 µg/mL
B6,EC50 fold over wild-type rFluA-20,[7],> 100 fold
same,EC50,[8],0.07 µg/mL
B7,EC50,[2],0.007 µg/mL
same,EC50,[4],0.018 µg/mL
B8,EC50,[7],0.11 µg/mL
same,EC50,[8],0.07 µg/mL
B9,EC50,[7],0.16 µg/mL
same,EC50,[8],0.06 µg/mL
B10,EC50,[9],0.045 µg/mL
B11,EC50,[9],0.074 µg/mL
